{"source": "paper PMC12945441", "about": "(2022)", "molecular_target": "SARS-CoV-2 Wuhan-Hu-1 receptor-binding domain (SARS-CoV-2 Wuhan-Hu-1)", "assay": "ELISA", "data": [{"binder": "S2X324 mAb (antibody, V domains shown) VH: QITLKESGPTLVKPTQTLTLTCTFSGFSVTTSGVGVGWIRQPPGKALEYLALIYWDDDKRYSTSLKSRLTITKDTSKNQVVLTMTNMDPVDTATYYCARHTIPSIFDYWGQGILVTVSS VL: QPVLTQPASVSGSPGQSITISCTATSSDVGNYNYVSWYQHHPGKAPKLMIYEVSNRPSGVSNRFSGSKSGNTASLTISGLQAEDEADYYCSSYTSSSLLFGGGTKLTVL", "values": [{"measurement": "IC50", "result": 0.0267, "unit": "µg/mL"}]}]}
